The values that follow come from article PMC2653023, “Improving the functional expression of a Bacillus licheniformis laccase by random and site-directed mutagenesis” (BMC Biotechnology, 2009).

The labels stand for the following.
B1: CotA (Bacillus licheniformis DSM 13 = ATCC 14580) (protein)
chain: MKLEKFVDRLPIPQVLQPQSKSKEMTYYEVTMKEFQQQLHRDLPPTRLFGYNGVYPGPTFEVQKHEKVAVKWLNKLPDRHFLPVDHTLHDDGHHEHEVKTVVHLHGGCTPADSDGYPEAWYTKDFHAKGPFFEREVYEYPNEQDATALWYHDHAMAITRLNVYAGLVGLYFIRDREERSLNLPKGEYEIPLLIQDKSFHEDGSLFYPRQPDNPSPDLPDPSIVPAFCGDTILVNGKVWPFAELEPRKYRFRILNASNTRIFELYFDHDITCHQIGTDGGLLQHPVKVNELVIAPAERCDIIVDFSRAEGKTVTLKKRIGCGGQDADPDTDADIMQFRISKPLKQKDTSSLPRILRKRPFYRRHKINALRNLSLGAAVDQYGRPVLLLNNTKWHEPVTETPALGSTEIWSIINAGRAIHPIHLHLVQFMILDHRPFDIERYQENGELVFTGPAVPPAPNEKGLKDTVKVPPGSVTRIIATFAPYSGRYVWHCHILEHEDYDMMRPLEVTDVRHQ
notes: untagged full-length CotA in pET22b+ (NdeI/EcoRI, own stop codon), recombinant from E. coli BL21(DE3), heat step and Q-Sepharose, ~65 kDa; primer-encoded N-terminus MKLEKFVDR, C-terminus EVTDVRHQ
B2: CotA (Bacillus licheniformis DSM 13 = ATCC 14580; D500G/K316N) (protein)
chain: MKLEKFVDRLPIPQVLQPQSKSKEMTYYEVTMKEFQQQLHRDLPPTRLFGYNGVYPGPTFEVQKHEKVAVKWLNKLPDRHFLPVDHTLHDDGHHEHEVKTVVHLHGGCTPADSDGYPEAWYTKDFHAKGPFFEREVYEYPNEQDATALWYHDHAMAITRLNVYAGLVGLYFIRDREERSLNLPKGEYEIPLLIQDKSFHEDGSLFYPRQPDNPSPDLPDPSIVPAFCGDTILVNGKVWPFAELEPRKYRFRILNASNTRIFELYFDHDITCHQIGTDGGLLQHPVKVNELVIAPAERCDIIVDFSRAEGKTVTLKNRIGCGGQDADPDTDADIMQFRISKPLKQKDTSSLPRILRKRPFYRRHKINALRNLSLGAAVDQYGRPVLLLNNTKWHEPVTETPALGSTEIWSIINAGRAIHPIHLHLVQFMILDHRPFDIERYQENGELVFTGPAVPPAPNEKGLKDTVKVPPGSVTRIIATFAPYSGRYVWHCHILEHEDYGMMRPLEVTDVRHQ
notes: as for B1
B3: CotA (Bacillus licheniformis DSM 13 = ATCC 14580; D500G) (protein)
chain: MKLEKFVDRLPIPQVLQPQSKSKEMTYYEVTMKEFQQQLHRDLPPTRLFGYNGVYPGPTFEVQKHEKVAVKWLNKLPDRHFLPVDHTLHDDGHHEHEVKTVVHLHGGCTPADSDGYPEAWYTKDFHAKGPFFEREVYEYPNEQDATALWYHDHAMAITRLNVYAGLVGLYFIRDREERSLNLPKGEYEIPLLIQDKSFHEDGSLFYPRQPDNPSPDLPDPSIVPAFCGDTILVNGKVWPFAELEPRKYRFRILNASNTRIFELYFDHDITCHQIGTDGGLLQHPVKVNELVIAPAERCDIIVDFSRAEGKTVTLKKRIGCGGQDADPDTDADIMQFRISKPLKQKDTSSLPRILRKRPFYRRHKINALRNLSLGAAVDQYGRPVLLLNNTKWHEPVTETPALGSTEIWSIINAGRAIHPIHLHLVQFMILDHRPFDIERYQENGELVFTGPAVPPAPNEKGLKDTVKVPPGSVTRIIATFAPYSGRYVWHCHILEHEDYGMMRPLEVTDVRHQ
notes: as for B1
B4: CotA (Bacillus licheniformis DSM 13 = ATCC 14580; K316N) (protein)
chain: MKLEKFVDRLPIPQVLQPQSKSKEMTYYEVTMKEFQQQLHRDLPPTRLFGYNGVYPGPTFEVQKHEKVAVKWLNKLPDRHFLPVDHTLHDDGHHEHEVKTVVHLHGGCTPADSDGYPEAWYTKDFHAKGPFFEREVYEYPNEQDATALWYHDHAMAITRLNVYAGLVGLYFIRDREERSLNLPKGEYEIPLLIQDKSFHEDGSLFYPRQPDNPSPDLPDPSIVPAFCGDTILVNGKVWPFAELEPRKYRFRILNASNTRIFELYFDHDITCHQIGTDGGLLQHPVKVNELVIAPAERCDIIVDFSRAEGKTVTLKNRIGCGGQDADPDTDADIMQFRISKPLKQKDTSSLPRILRKRPFYRRHKINALRNLSLGAAVDQYGRPVLLLNNTKWHEPVTETPALGSTEIWSIINAGRAIHPIHLHLVQFMILDHRPFDIERYQENGELVFTGPAVPPAPNEKGLKDTVKVPPGSVTRIIATFAPYSGRYVWHCHILEHEDYDMMRPLEVTDVRHQ
notes: as for B1

Substrate in this data set: CCn1c(=NN=c2sc3cc(S(=O)(=O)O)ccc3n2CC)sc2cc(S(=O)(=O)O)ccc21
Nature of the data set: purified protein. The class given is biochemical, Bacillus licheniformis. The settings on record: 0.1 M citrate/phosphate buffer, pH 4.0, room temperature, 5-500 μM ABTS, co-substrate O2, free enzyme.
The Km is the substrate concentration at which the rate is half of its maximum. On to B1, for which the Km worked out at 6.5 ± 0.2 µM.

Take B2: the Michaelis-Menten constant (Km) was 8.4 ± 0.2 µM.

As to B3, the Michaelis constant (Km) came out at 9.5 ± 0.2 µM.

Turning to B4, the Michaelis-Menten constant (Km) worked out at 10.0 ± 0.3 µM.
